Test results as given in the Human Domainome abundance scans (Beltran et al. 2025).

B1: Chromodomain-helicase-DNA-binding protein 3, residues 374 to 426; numbered along this chain, Q12873 (parent)
chain: YETDHQDYCEVCQQGGEIILCDTCPRAYHLVCLDPELDRAPEGKWSCPHCEKE
B2: Ubiquitin-protein ligase residues 30 to 86; numbered along this chain, Q05086 (parent)
chain: KHLIERYYHQLTEGCGNEACTNEFCASCPTFLRMDNNAAAIKALELYKINAKLCDPH

Variants of: B1
Test: abundance fitness (aPCA) (normalised: wild type 0, dead -1); higher = more abundant; growth selection in yeast, the domain comes from the species named
Conditions: Homo sapiens

Abundance fitness: each site, then its substitutions
E53: V -0.309; R -0.276; M -0.19; I -0.37; Q -0.118; S -0.48; T -0.187; W -0.401

Variants of: B2
Test: as above
Conditions: Homo sapiens

Abundance fitness: each site, then its substitutions
L11: E -0.843; Q -0.41; G -0.681; S -0.425; N -0.774; Y -0.566; K -0.848; W -0.904; T -0.201; R -0.872; C -0.153; P -0.865; V -0.036; M -0.14; D -0.834
Y8: E -0.027; L 0.045; A -0.06; W -0.181; K 0.054; H -0.015; D -0.513; I 0.018; T 0.091; P -0.757; F -0.138; Q 0.116; R 0.028; S -0.06; N -0.097; G -0.212; V -0.015
H2: K -0.021; V -0.044; Q 0.025; Y 0.051; M -0.03; S 0.019; C -0.204; D 0.082; L -0.005; R -0.025; P -0.116; I 0.229; T -0.085; W -0.542; E -0.055; A -0.041
R6: A -0.021; K 0.029; C -0.271; S -0.026; Y -0.209; W -0.292; M -0.079; F -0.147; V -0.044; N -0.006; E -0.078; P 0.011; D -0.028; T -0.017; H -0.027; I -0.151; L -0.097
E18: M 0.006; Q 0.076; V -0.023; D -0.004; S 0.001; C -0.044; L -0.056; F -0.181; N 0.061; I -0.075; H 0.014; G -0.054; T -0.003; W -0.151; Y -0.071; K -0.089; A 0; R -0.066
I4: D -0.116; R 0.004; L -0.159; P -0.093; S 0.012; N -0.042; G -0.117; V -0.047; A -0.027; Y -0.029; W -0.208; C -0.113; F -0.15; E -0.032; Q 0.058; M -0.087; K 0.059; T 0.064
G14: S -0.946; F -0.865; Q -1.09; N -0.849; T -0.848; Y -1.02; E -0.919; L -0.967; I -1.02; R -0.966; H -0.957; D -0.945; V -0.973; A -0.866; W -0.942
Q10: A -0.13; V -0.253; F -0.329; H -0.148; K -0.5; L -0.198; T -0.123; I -0.15; G -0.311; P -0.86; Y -0.277; C -0.274; W -0.765; R -0.07; E -0.868; D -0.485; N -0.127; S -0.093
E5: C -0.125; V -0.211; M -0.105; T -0.005; A -0.116; S -0.01; L -0.123; R 0.015; W -0.08; H -0.04; K 0.037; F -0.112; N 0.058; G -0.042; Q 0.037; I -0.142; P -0.068
H9: Y -0.123; S 0.017; F -0.12; Q 0.05; I 0.015; P -0.771; T 0.032; E -0.131; M -0.013; C -0.034; A 0.007; L 0.093; W -0.055; G -0.008; D -0.189; V -0.014; R 0.025; K 0.077
T12: L -0.015; A -0.128; E -0.355; R -0.073; Q -0.079; M 0.03; P -0.998; V -0.028; G -0.569; D -0.353; W -0.359; F -0.204; S -0.039; I -0.062
N17: I -0.067; E -0.029; C -0.037; L -0.071; M -0.096; A -0.001; Q -0.087; R -0.042; Y -0.042; D -0.04; V -0.05; W 0.005; H -0.008; T 0.014; P -0.091; S -0.034; G -0.008; K 0.027; F -0.091
A19: C -0.12; W -0.073; V -0.013; G -0.015; R -0.022; M 0.011; D 0.023; N -0.015; I -0.102; P -0.084; K -0.001; S -0.008; L -0.045; E 0.004; F -0.031; H -0.006; Y -0.1
E13: A 0.029; M -0.093; V -0.071; T -0.009; Y -0.01; L 0.006; R -0.02; D 0.055; H -0.006; I -0.048; W -0.163; Q 0.06; F -0.047; S 0.008; K 0.041; P -1.02
C15: F -0.885; L -1; H -0.576; R -0.912; E -0.943; P -1.09; S -1.07; Y -0.944; D -0.796; Q -0.85; A -0.789; N -0.981; T -0.833; G -0.973; W -0.969; M -1.04
L3: C -0.005; I -0.039; D -0.264; A -0.334; Q 0.014; E -0.206; G -0.129; V -0.474; S -0.004; R -0.077; N -0.057; M 0.048; W -0.049; Y -0.021; P -0.204; K 0.003
C20: K -1.13; P -1.03; D -0.883; E -1.02; V -1.02; G -0.86; S -0.821; F -0.889; N -1.1; Q -0.893; L -1.03; M -1.08; I -0.941
G16: S -0.062; Q -0.059; Y -0.117; L -0.11; M -0.179; V -0.2; P -0.132; W -0.191; I -0.33; N -0.061; E -0.049; R -0.127; D -0.041; A -0.049; F -0.221; K -0.064; C -0.049
K1: C -0.33; V -0.517; N -0.397; P -0.719; S -0.833; T -0.1; Y -0.31; M -0.253; E -0.368; G -0.476; L -0.577; F -0.53; R -0.102; A -0.757
Y7: L -0.154; A -0.448; C -0.65; D -0.683; Q -0.781; F -0.034; N -0.658; S -0.799; M -0.215; G -0.77; H -0.289; W -0.184; E -0.963; R -0.925; K -0.796
